# Results published in US8802386B2, “Diagnostic test for determining the concentration of transient proteolytic activity in composite biological media” (Synapse B.V., priority 2002, dated 2014).
# B1: ReoPro: a known platelet-activation inhibitor (antibody, chains of the INN, looked up, V domains shown)
# VH: EVQLQQSGTVLARPGASVKMSCEASGYTFTNYWMHWVKQRPGQGLEWIGAIYPGNSDTSYIQKFKGKAKLTAVTSTTSVYMELSSLTNEDSAVYYCTLYDGYYVFAYWGQGTLVTVSA
# VL: EIVLTQSPVTLSVTPGDSVSLSCRASRDISNNLHWFQQTSHESPRLLIKYASQSMSGIPSRFSGSGSGTDFTLSINSVETEDFGMYFCQQTNSWPYTFGGGTKLEIK
# modifications: Fab
# Test system: thrombin generation in platelet-rich plasma of a healthy donor
# Assay: Thrombin generation curve (Thrombogram) in platelet-rich plasma, fluorogenic substrate
# Assay type: cell-based, Human
# Conditions: platelet-rich plasma of a healthy donor treated with the inhibitor vs the same plasma untreated; FIG. 9
# Procedure: FIG. 9 is an example of an experiment in which platelet-rich plasma of a healthy donor is measured as well as the same plasma treated with a known platelet-activation inhibitor (ReoPro®). The two curves are different in shape, which is obvious from a longer TTP and lower peak height, but the area under the curve of both curves are within 3%, identical. This effect on peak height and TTP in the absence of a clear effect on the ETP is also seen for many mild coagulation factor deficiencies such as von Willebrand disease, deficiencies in factor VII or factor V and in factor VIII or IX deficiencies (haemophiliae). In many instances the Peak height and TTP have proven to be much more sensitive parameters of the thrombin generation curve than the ETP alone.
# Firstly, an experiment is described in which thrombin generation in a sample of platelet rich plasma is measured. Solutions used: Human platelet rich plasma, obtained as in Beguin, S., T. Lindhout, and H. C. Hemker. The effect of trace amounts of tissue factor on thrombin generation in platelet rich plasma, its inhibition by heparin. Thromb Haemost, 1989. 61(1): p-25-9. Buffer A: 20 mM Hepes 140 mM NaCl, 5 g/l bovine serum albumin (BSA), pH 7.35; Buffer C: 20 mM Hepes, 140 mM NaCl, with BSA 60 mg/mL, pH 7.35 with 0.02% sodium azide as a preservative.
# FluCa solution: To 1750 μL of buffer C are added 200 μL of 1 M CaCl2. The mixture is warmed to 37° C. Then 50 μL of 100 mmoles/liter of the substrate solution in DMSO is squirted in and the tube is immediately vortexed to obtain a perfectly clear solution that is 2.5 mM in substrate. 100 mM in CaCl2, 2.5% in DMSO. […]
# The disturbing effects a and b are corrected by continuous on line comparison of the first derivative of the signal from the thrombin generated in the sample (O=f(t)) and the first derivative of the signal produced in the other sample by the calibrator (S=f(t)). […] A and B are continuously calculated during the experiment from the best fitting straight line through S=f(t). […]
molecule,measurement,value
B1,TTP (time to peak) of thrombin generation curve,longer
same,difference in area under the curve (ETP) between treated and untreated plasma,≤ 3%
same,peak height of thrombin generation curve,lower
